Results from paper PMC11110689.

Target: factor inhibiting HIF (FIH), V5-tagged (FIH-V5) (UniProt Q9NWT6)
Experiment: immunoblot of a denaturation-resistant (SDS-PAGE) complex; cells co-transfected, 24 h at the indicated oxygen levels (18.5–1% O2), blots quantified, oxygen sensitivity calculated

Chain of UniProt Q9NWT6 (Q9NWT6 whole entry): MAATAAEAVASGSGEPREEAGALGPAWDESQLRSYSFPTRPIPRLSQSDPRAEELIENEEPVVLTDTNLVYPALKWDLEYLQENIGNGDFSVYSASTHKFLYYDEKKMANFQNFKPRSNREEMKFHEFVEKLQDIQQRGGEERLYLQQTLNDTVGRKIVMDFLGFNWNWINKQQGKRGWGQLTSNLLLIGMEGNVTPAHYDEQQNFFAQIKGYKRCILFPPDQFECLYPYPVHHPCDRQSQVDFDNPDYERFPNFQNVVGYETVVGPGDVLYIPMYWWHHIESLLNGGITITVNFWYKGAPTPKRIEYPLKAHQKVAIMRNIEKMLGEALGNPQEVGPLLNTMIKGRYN

NF-κB inhibitor β (IκBβ), FLAG-tagged (IκBβ-FLAG) (from UniProt Q15653 1-356) (natural protein)
EC50 of the oxygen level for oxomer formation: 7.6 % O2
